The values that follow come from IntAct's records for PubMed 20477991.

To fix the notation:
B1: Phospholipid-transporting ATPase NEO1 (Saccharomyces cerevisiae), P40527 (parent)
chain: MPNPPSFKSHKQNLFNSNNNQHANSVDSFDLHLDDSFDAALDSLQINNNPEPLSKHNTVGDRESFEMRTVDDLDNFSNHSSDSHRKSSNTDTHPLMYDNRLSQDDNFKFTNIASSPPSSSNNIFSKALSYLKVSNTKNWSKFGSPIELSDQHIEREIHPDTTPVYDRNRYVSNELSNAKYNAVTFVPTLLYEQFKFFYNLYFLVVALSQAVPALRIGYLSSYIVPLAFVLTVTMAKEAIDDIQRRRRDRESNNELYHVITRNRSIPSKDLKVGDLIKVHKGDRIPADLVLLQSSEPSGESFIKTDQLDGETDWKLRVACPLTQNLSENDLINRISITASAPEKSIHKFLGKVTYKDSTSNPLSVDNTLWANTVLASSGFCIACVVYTGRDTRQAMNTTTAKVKTGLLELEINSISKILCACVFALSILLVAFAGFHNDDWYIDILRYLILFSTIIPVSLRVNLDLAKSVYAHQIEHDKTIPETIVRTSTIPEDLGRIEYLLSDKTGTLTQNDMQLKKIHLGTVSYTSETLDIVSDYVQSLVSSKNDSLNNSKVALSTTRKDMSFRVRDMILTLAICHNVTPTFEDDELTYQAASPDEIAIVKFTESVGLSLFKRDRHSISLLHEHSGKTLNYEILQVFPFNSDSKRMGIIVRDEQLDEYWFMQKGADTVMSKIVESNDWLEEETGNMAREGLRTLVIGRKKLNKKIYEQFQKEYNDASLSMLNRDQQMSQVITKYLEHDLELLGLTGVEDKLQKDVKSSIELLRNAGIKIWMLTGDKVETARCVSISAKLISRGQYVHTITKVTRPEGAFNQLEYLKINRNACLLIDGESLGMFLKHYEQEFFDVVVHLPTVIACRCTPQQKADVALVIRKMTGKRVCCIGDGGNDVSMIQCADVGVGIVGKEGKQASLAADFSITQFCHLTELLLWHGRNSYKRSAKLAQFVMHRGLIIAICQAVYSICSLFEPIALYQGWLMVGYATCYTMAPVFSLTLDHDIEESLTKIYPELYKELTEGKSLSYKTFFVWVLLSLFQGSVIQLFSQAFTSLLDTDFTRMVAISFTALVVNELIMVALEIYTWNKTMLVTEIATLLFYIVSVPFLGDYFDLGYMTTVNYYAGLLVILLISIFPVWTAKAIYRRLHPPSYAKVQEFATP

The experiment covers variants of B1. As to conditions: with dop1_yeast DOP1, Q03921.
Chain of dop1_yeast DOP1, Q03921 (Q03921 whole entry): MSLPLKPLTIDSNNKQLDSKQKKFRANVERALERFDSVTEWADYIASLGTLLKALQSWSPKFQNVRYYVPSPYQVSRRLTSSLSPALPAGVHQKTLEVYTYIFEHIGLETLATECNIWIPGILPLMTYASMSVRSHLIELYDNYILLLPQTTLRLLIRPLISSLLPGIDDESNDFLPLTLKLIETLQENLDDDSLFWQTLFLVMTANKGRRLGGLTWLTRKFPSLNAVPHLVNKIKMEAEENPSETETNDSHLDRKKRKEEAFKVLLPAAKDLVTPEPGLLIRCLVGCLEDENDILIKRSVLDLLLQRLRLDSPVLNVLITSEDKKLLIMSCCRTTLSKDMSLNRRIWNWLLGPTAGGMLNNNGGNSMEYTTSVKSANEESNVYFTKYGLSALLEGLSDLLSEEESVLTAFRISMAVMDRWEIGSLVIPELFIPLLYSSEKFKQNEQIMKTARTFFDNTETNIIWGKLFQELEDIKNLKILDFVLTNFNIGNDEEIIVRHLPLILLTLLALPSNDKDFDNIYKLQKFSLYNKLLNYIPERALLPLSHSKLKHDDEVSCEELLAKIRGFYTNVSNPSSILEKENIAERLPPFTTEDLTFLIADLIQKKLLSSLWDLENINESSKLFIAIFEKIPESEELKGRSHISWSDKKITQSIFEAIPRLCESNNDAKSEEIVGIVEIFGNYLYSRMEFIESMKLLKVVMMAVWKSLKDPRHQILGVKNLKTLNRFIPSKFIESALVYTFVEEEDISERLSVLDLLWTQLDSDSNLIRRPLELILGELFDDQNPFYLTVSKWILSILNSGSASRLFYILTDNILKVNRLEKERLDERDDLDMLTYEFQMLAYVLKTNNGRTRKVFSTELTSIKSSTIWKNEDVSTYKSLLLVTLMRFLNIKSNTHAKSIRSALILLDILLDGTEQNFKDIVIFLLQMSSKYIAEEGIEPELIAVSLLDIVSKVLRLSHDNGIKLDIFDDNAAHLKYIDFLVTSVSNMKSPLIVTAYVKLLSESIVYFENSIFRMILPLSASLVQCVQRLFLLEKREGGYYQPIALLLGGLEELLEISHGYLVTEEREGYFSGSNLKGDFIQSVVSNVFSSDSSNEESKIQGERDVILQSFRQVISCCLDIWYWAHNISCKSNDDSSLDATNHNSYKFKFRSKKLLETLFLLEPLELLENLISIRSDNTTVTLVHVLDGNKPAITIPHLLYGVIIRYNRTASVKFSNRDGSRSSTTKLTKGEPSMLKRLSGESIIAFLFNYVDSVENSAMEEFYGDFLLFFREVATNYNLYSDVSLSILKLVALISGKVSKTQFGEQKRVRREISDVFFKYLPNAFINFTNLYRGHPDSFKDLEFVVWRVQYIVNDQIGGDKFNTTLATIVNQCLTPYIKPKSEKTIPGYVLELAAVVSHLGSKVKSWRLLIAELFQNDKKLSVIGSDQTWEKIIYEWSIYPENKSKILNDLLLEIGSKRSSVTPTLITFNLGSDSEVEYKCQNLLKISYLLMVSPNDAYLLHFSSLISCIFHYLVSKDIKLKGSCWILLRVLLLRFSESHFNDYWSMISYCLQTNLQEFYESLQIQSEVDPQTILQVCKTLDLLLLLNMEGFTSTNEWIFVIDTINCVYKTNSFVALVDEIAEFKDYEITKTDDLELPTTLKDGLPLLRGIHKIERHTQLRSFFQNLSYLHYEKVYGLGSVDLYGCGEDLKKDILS
As for F301S;D305G;V373A;S539P;L540P;N631S;Q655R;V748A, the “effect of a mutation on the interaction” value is recorded as “decreasing interaction strength”. I284T;I449M;E605G;L680P;Y714H: the “effect of a mutation on the interaction” value is on record as “with no effect”.
